Among the data in the supplement of paper PMC10126150 are switch fluorescence ratio values, retold here.

± gives the standard deviation of the averaged measurements.

This data set has as its system ATP. Nature of the data set: switch fluorescence ratio, 500 uM ATP over buffer (Cy3 cluster intensity, sum of 5 cycles each) (fold (ratio)); higher = stronger signal-on switching upon ATP binding; sequences stand for … in TCGTCGGCAGCGTCAGATGTGTATAAGAGACAGTTTTTTTTTTTTTTTTTTTTTTTTT…TC. The note with it: aptamer strand: ATP DNA aptamer (quencher-CACCTGGGGGAGTATTGCGGAGGAAGG + anchor), 100 nM annealed; ATP concentration: 500 uM. In outline:
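Per cluster, summed Cy3 intensity from the target cycles was divided by that from the buffer cycles to give the fluorescence ratio, then averaged per switch-domain sequence. Clusters outside 100-1000 RFU were excluded. The Cy3-labelled switching-strand clusters, on a modified Illumina MiSeq flow-cell, were annealed to 100 nM quencher-labelled ATP aptamer and imaged in selection buffer, then after 15 min with 500 uM ATP at 22 °C, for five cycles with NaOH stripping and re-annealing between them.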
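Note: ATP exposure 15 min at 22 °C before imaging.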

AAAAAAAGCA: the switch fluorescence ratio turned out to be 1.04 ± 0.05. For the sequence AAAAAAAGGT, the switch fluorescence ratio was 1.021 ± 0.01. In the case of AAAAAAATCC it was 1.01 ± 0.07; in that of AAAAAAATTC, 1.05 ± 0.079.

Take AAAAAACCTA: the switch fluorescence ratio was determined as 1.063 ± 0.008. For the sequence AAAAAACGCT, the switch fluorescence ratio was 1.08 ± 0.061. Take AAAAAAGTGG: the switch fluorescence ratio came to 1.02 ± 0.026. For the sequence AAAAAATAGG, the switch fluorescence ratio stood at 1.01 ± 0.028.

Turning to AAAAAATAGT, the switch fluorescence ratio was determined as 1 ± 0.019. In the case of AAAAAATGCT it was 1.01 ± 0.014; in that of AAAAAATTCG, 1.03 ± 0.017; in that of AAAAACAGGT, 1.02 ± 0.013. In the case of AAAAAGCTGA, the switch fluorescence ratio turned out to be 0.973 ± 0.055. As to AAAAAGGATT, the switch fluorescence ratio is 1 ± 0.02.

For AAAAAGGTGG, the switch fluorescence ratio was found to be 1.06 ± 0.047. For the sequence AAAAAGGTTT, the switch fluorescence ratio was found to be 0.978 ± 0.037. In the case of AAAAAGTTAG it was 0.998 ± 0.023; in that of AAAAATAAGC, 1.03 ± 0.072; in that of AAAAATATGC, 0.996 ± 0.017. AAAAATCTGG: the switch fluorescence ratio came to 1.45 ± 0.67. For AAAAATGCGG, the switch fluorescence ratio amounted to 1.01 ± 0.077. Regarding AAAAATGGTG, the switch fluorescence ratio was determined as 0.981 ± 0.033. With AAAAATGTGT, the switch fluorescence ratio is 0.971 ± 0.01. In the case of AAAAATTAAT it was 0.979 ± 0.023; in that of AAAAATTTCG, 1.05 ± 0.063; in that of AAAAATTTGT, 0.993 ± 0.05. Consider AAAAATTTTT, for which the switch fluorescence ratio is 0.995 ± 0.052.

On to AAAACAAACT, for which the switch fluorescence ratio was found to be 1.26 ± 0.38.

On to AAAACAGGAT, for which the switch fluorescence ratio worked out at 0.9954 ± 0.0095.

On to AAAACATAGC, for which the switch fluorescence ratio amounted to 0.965 ± 0.056. With AAAACCGCGA, the switch fluorescence ratio is 1.59 ± 0.28.

As for AAAACGAGAT, the switch fluorescence ratio was determined as 1.05 ± 0.039. Regarding AAAACGAGTC, the switch fluorescence ratio is 1.07 ± 0.031.

For AAAACGCGCT, the switch fluorescence ratio was determined as 0.965 ± 0.079. In the case of AAAACGGAAC it was 1.05 ± 0.028; in that of AAAACTTTGA, 1 ± 0.017; in that of AAAAGACGGT, 1.015 ± 0.0016. In the case of AAAAGATATT, the switch fluorescence ratio worked out at 0.996 ± 0.049. In the case of AAAAGATTGG it was 0.969 ± 0.011; in that of AAAAGCAGCG, 1.03 ± 0.05; in that of AAAAGCAGTT, 1.028 ± 0.004. On to AAAAGCGCT, for which the switch fluorescence ratio worked out at 0.999 ± 0.025. Take AAAAGCGTAG: the switch fluorescence ratio was 1.01 ± 0.015. For the sequence AAAAGCGTTA, the switch fluorescence ratio came out at 0.9962 ± 0.009.

AAAAGCTACT: the switch fluorescence ratio was found to be 1.06 ± 0.053. As to AAAAGCTCGT, the switch fluorescence ratio was found to be 1 ± 0.05. As for AAAAGCTTAT, the switch fluorescence ratio turned out to be 1.05 ± 0.03. Regarding AAAAGCTTTT, the switch fluorescence ratio amounted to 0.988 ± 0.034. AAAAGGAAT: the switch fluorescence ratio was 1.001 ± 0.009. In the case of AAAAGGACGT it was 0.962 ± 0.0056; in that of AAAAGGGGAA, 1.02 ± 0.025.

For AAAAGGGGAG, the switch fluorescence ratio was determined as 1.14 ± 0.16.

On to AAAAGGGGAT, for which the switch fluorescence ratio amounted to 0.997 ± 0.036. As to AAAAGGGGTG, the switch fluorescence ratio is 1.09 ± 0.025. In the case of AAAAGGTGCC it was 1.13 ± 0.024; in that of AAAAGGTTAC, 1.06 ± 0.033; in that of AAAAGGTTAG, 1.0185 ± 0.00083.

Consider AAAAGGTTGT, for which the switch fluorescence ratio amounted to 0.999 ± 0.038. In the case of AAAAGTGAAA it was 1.14 ± 0.2; in that of AAAAGTTATT, 0.986 ± 0.027.

Regarding AAAAGTTCTG, the switch fluorescence ratio worked out at 1.01 ± 0.057. AAAAGTTTTC: the switch fluorescence ratio turned out to be 0.975 ± 0.0098. As for AAAATAAGGT, the switch fluorescence ratio is 0.969 ± 0.043.

Consider AAAATACGGG, for which the switch fluorescence ratio was 1.21 ± 0.21. For the sequence AAAATACGTT, the switch fluorescence ratio worked out at 1.23 ± 0.16. Turning to AAAATAGAGC, the switch fluorescence ratio was 1.05 ± 0.062. For AAAATAGGGA, the switch fluorescence ratio is 0.989 ± 0.024. With AAAATATACA, the switch fluorescence ratio came out at 1.01 ± 0.027. In the case of AAAATATGGG, the switch fluorescence ratio amounted to 0.987 ± 0.031. AAAATCACGG: the switch fluorescence ratio amounted to 1.14 ± 0.1. As for AAAATCGAAA, the switch fluorescence ratio came to 0.99 ± 0.015. In the case of AAAATCTAAT, the switch fluorescence ratio was 1.01 ± 0.054.

As for AAAATCTTAG, the switch fluorescence ratio is 1 ± 0.036.

Regarding AAAATGAACG, the switch fluorescence ratio is 1.08 ± 0.047. As to AAAATGACGT, the switch fluorescence ratio is 1.04 ± 0.049. As for AAAATGCATC, the switch fluorescence ratio is 1.04 ± 0.038. AAAATGCGGG: the switch fluorescence ratio worked out at 1.01 ± 0.036.

Take AAAATGGAGA: the switch fluorescence ratio is 0.983 ± 0.029. For AAAATGGGCA, the switch fluorescence ratio was determined as 1.02 ± 0.024. In the case of AAAATGGGTA, the switch fluorescence ratio amounted to 0.986 ± 0.034.

Take AAAATGGTGC: the switch fluorescence ratio worked out at 1.06 ± 0.065. Turning to AAAATGTAAG, the switch fluorescence ratio turned out to be 1.011 ± 0.0057. Turning to AAAATGTAGG, the switch fluorescence ratio came out at 0.957 ± 0.03. For the sequence AAAATGTGGG, the switch fluorescence ratio was 0.987 ± 0.041. In the case of AAAATTAGTT, the switch fluorescence ratio was 1.03 ± 0.012.

As for AAAATTGTGT, the switch fluorescence ratio is 1.01 ± 0.015. With AAAATTGTTT, the switch fluorescence ratio is 1.01 ± 0.031.

Consider AAAATTTTTT, for which the switch fluorescence ratio is 1.07 ± 0.19. Consider AAACACTGGG, for which the switch fluorescence ratio came out at 0.9638 ± 0.0073. In the case of AAACAGCTTA, the switch fluorescence ratio is 1.05 ± 0.056.

For the sequence AAACATAGTG, the switch fluorescence ratio stood at 0.987 ± 0.052. With AAACCCGGGA, the switch fluorescence ratio worked out at 1.04 ± 0.058. Consider AAACGCCTTA, for which the switch fluorescence ratio was determined as 1.03 ± 0.015.

AAACGGCGTT: the switch fluorescence ratio is 0.9725 ± 0.0013. For the sequence AAACGGGCTA, the switch fluorescence ratio came to 1.03 ± 0.039. Consider AAACGGGGGT, for which the switch fluorescence ratio is 0.991 ± 0.0073.

AAACGTCTGA: the switch fluorescence ratio was found to be 0.9936 ± 0.0016. Regarding AAACGTGGGG, the switch fluorescence ratio is 1.01 ± 0.066. With AAACGTTAGA, the switch fluorescence ratio came out at 1.03 ± 0.0082.

Turning to AAACTAACTT, the switch fluorescence ratio turned out to be 1.01 ± 0.046. For the sequence AAACTAGCGC, the switch fluorescence ratio amounted to 0.981 ± 0.015. Take AAACTAGGGG: the switch fluorescence ratio came out at 1.06 ± 0.016. AAACTAGGGT: the switch fluorescence ratio was 0.9975 ± 0.0077. Take AAACTGAAAT: the switch fluorescence ratio amounted to 1.76 ± 1.1. In the case of AAACTGAATC, the switch fluorescence ratio is 1 ± 0.094.

Regarding AAACTGATGA, the switch fluorescence ratio came to 1.06 ± 0.024.

For AAACTGCTCG, the switch fluorescence ratio turned out to be 1.04 ± 0.064. AAACTGGGGG: the switch fluorescence ratio was found to be 1.012 ± 0.0032. For AAACTTATAA, the switch fluorescence ratio was found to be 0.991 ± 0.029. Turning to AAACTTGGCA, the switch fluorescence ratio came out at 1.017 ± 0.0088. As to AAAGAACACG, the switch fluorescence ratio turned out to be 1.05 ± 0.1.

Consider AAAGAACACT, for which the switch fluorescence ratio is 1.06 ± 0.037.

On to AAAGAACGGA, for which the switch fluorescence ratio was found to be 1.06 ± 0.095.

For the sequence AAAGAAGAGA, the switch fluorescence ratio was found to be 1.021 ± 0.0069. In the case of AAAGAAGGTG, the switch fluorescence ratio turned out to be 1.06 ± 0.12. On to AAAGAATGGG, for which the switch fluorescence ratio came out at 0.978 ± 0.017. In the case of AAAGACATGG, the switch fluorescence ratio was found to be 0.989 ± 0.017.

Take AAAGAGCCTT: the switch fluorescence ratio came out at 1.13 ± 0.2. In the case of AAAGAGCGTA it was 1 ± 0.029; in that of AAAGAGTAAT, 1.006 ± 0.0045.
